Measured values from article PMC11262183, “Arid5a uses disordered extensions of its core ARID domain for distinct DNA- and RNA-recognition and gene regulation”.

T1: Arid5a ARID (Homo sapiens) (UniProt Q03989)
T1 sequence: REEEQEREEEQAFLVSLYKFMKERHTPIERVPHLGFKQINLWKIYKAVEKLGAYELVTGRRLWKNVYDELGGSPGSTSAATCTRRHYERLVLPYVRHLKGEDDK

T2: Arid5a ARID37-183 (human, UniProt Q03989 37-183)
T2 sequence: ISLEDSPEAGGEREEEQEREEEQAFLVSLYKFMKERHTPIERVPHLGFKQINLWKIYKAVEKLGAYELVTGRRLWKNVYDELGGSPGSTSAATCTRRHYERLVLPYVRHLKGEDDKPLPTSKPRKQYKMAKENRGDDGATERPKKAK

T3: ARID49-152 K85A/Q86A (human, UniProt Q03989 49-152, K85A;Q86A)
T3 sequence: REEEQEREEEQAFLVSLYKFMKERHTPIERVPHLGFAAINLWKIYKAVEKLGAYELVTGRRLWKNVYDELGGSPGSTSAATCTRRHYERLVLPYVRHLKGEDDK

T4: Arid5a ARID49-152 (human, UniProt Q03989 49-152)
T4 sequence: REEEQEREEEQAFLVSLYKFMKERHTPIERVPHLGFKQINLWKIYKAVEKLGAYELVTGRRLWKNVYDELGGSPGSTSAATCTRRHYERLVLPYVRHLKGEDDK


What was measured:
[1] = target: T1, Arid5a ARID (Homo sapiens); experiment: pulldown; conditions: 1 and 5 uM protein; 25 mM Tris pH 7.5, 150 mM KCl, 3 mM MgCl2
Arid5a ARID37-183 [2] = target: T2, Arid5a ARID37-183; experiment: EMSA; 10 mM MgCl2, yeast tRNA; range over WT, var1, var2, var4; 20 mM Bis-Tris pH 6.5, 150 mM NaCl, 2 mM TCEP, 0.02% NaN3; NMR at 298 K; EMSA plus 10 mM MgCl2 and 0.6 ug yeast tRNA per 20 ul, 22-24 C; conditions: protein: recombinant; tags: cloned in pET-Trx1a (TEV site); label: 5'-fluorescein on strand 1; blunt
ARID49-152 K85A/Q86A = target: T3, ARID49-152 K85A/Q86A; experiment: NMR; 2-fold DNA; 20 mM Bis-Tris pH 6.5, 150 mM NaCl, 2 mM TCEP, 0.02% NaN3; NMR at 298 K; EMSA plus 10 mM MgCl2 and 0.6 ug yeast tRNA per 20 ul, 22-24 C; conditions: protein: recombinant; tags: cloned in pET-Trx1a (TEV site); blunt
Arid1a extended ARID [3] = target: T5, Arid1a extended ARID (human, UniProt O14497 999-1132); experiment: EMSA; 20 mM Bis-Tris pH 6.5, 150 mM NaCl, 2 mM TCEP, 0.02% NaN3; NMR at 298 K; EMSA plus 10 mM MgCl2 and 0.6 ug yeast tRNA per 20 ul, 22-24 C; conditions: protein: recombinant; tags: cloned in pET-Trx1a (TEV site); label: 5'-fluorescein on strand 1; blunt
T5 sequence (O14497 999-1132): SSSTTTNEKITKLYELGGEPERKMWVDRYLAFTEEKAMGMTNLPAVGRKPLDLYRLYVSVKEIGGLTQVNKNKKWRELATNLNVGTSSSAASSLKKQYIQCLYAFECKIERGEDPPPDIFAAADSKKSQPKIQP

Arid5a ARID37-183 [4] = target: T2, Arid5a ARID37-183; experiment: NMR; 3.5-fold RNA; stronger than core; 20 mM Bis-Tris pH 6.5, 150 mM NaCl, 2 mM TCEP, 0.02% NaN3; NMR at 298 K; EMSA plus 10 mM MgCl2 and 0.6 ug yeast tRNA per 20 ul, 22-24 C; conditions: protein: recombinant; tags: cloned in pET-Trx1a (TEV site); hairpin
Arid5a ARID49-152 = target: T4, Arid5a ARID49-152; experiment: NMR; 2-fold RNA; 20 mM Bis-Tris pH 6.5, 150 mM NaCl, 2 mM TCEP, 0.02% NaN3; NMR at 298 K; EMSA plus 10 mM MgCl2 and 0.6 ug yeast tRNA per 20 ul, 22-24 C; conditions: protein: recombinant; tags: cloned in pET-Trx1a (TEV site)
Arid1a extended ARID [5] = target: T5, Arid1a extended ARID; experiment: EMSA; similar affinity to AT; 20 mM Bis-Tris pH 6.5, 150 mM NaCl, 2 mM TCEP, 0.02% NaN3; NMR at 298 K; EMSA plus 10 mM MgCl2 and 0.6 ug yeast tRNA per 20 ul, 22-24 C; conditions: protein: recombinant; tags: cloned in pET-Trx1a (TEV site); label: 5'-fluorescein on strand 1; blunt
Arid5a ARID37-183 [6] = target: T2, Arid5a ARID37-183; experiment: NMR; 0.1-fold RNA; 20 mM Bis-Tris pH 6.5, 150 mM NaCl, 2 mM TCEP, 0.02% NaN3; NMR at 298 K; EMSA plus 10 mM MgCl2 and 0.6 ug yeast tRNA per 20 ul, 22-24 C; conditions: protein: recombinant; tags: cloned in pET-Trx1a (TEV site)

Row | Molecule | binding signal (RBNS z-score of enrichment R) [1] | other results
1 | AAAAAUA [7-mer AAAAATA] | 3.52 | 
2 | CAGGCAA [7-mer CAGGCAA] | 6.65 | 
3 | CAGGCAG [7-mer CAGGCAG] | 13 | 
4 | AAAAAAA [7-mer AAAAAAA] | 3.68 | 
5 | ACAGGCA [7-mer ACAGGCA] | 11.6 | 
6 | AAAUAUA [7-mer AAATATA] | 4.03 | 
7 | AGGCAGA [7-mer AGGCAGA] | 6.46 | 
8 | AACAGGC [7-mer AACAGGC] | 4.87 | 
9 | AGGCAGG [7-mer AGGCAGG] | 8.18 | 
10 | GCAGGCA [7-mer GCAGGCA] | 5.88 | 
11 | AGGCAGC [7-mer AGGCAGC] | 7.71 | 
12 | AAUAUAA [7-mer AATATAA] | 3.73 | 
13 | UACAGGC [7-mer TACAGGC] | 5.55 | 
14 | CAGGCAU [7-mer CAGGCAT] | 4.61 | 
15 | AGGCAGU [7-mer AGGCAGT] | 6.38 | 
16 | 13merAT_var1 (dsDNA) DNA 1: GCGCAATATAGCG DNA 2: CGCTATATTGCGC |  | Kd (Arid5a ARID37-183 [2]): ~1360 nM
17 | 13merAT_var4 (dsDNA) DNA 1: GCACAATACGACG DNA 2: CGTCGTATTGTGC |  | Kd (Arid5a ARID37-183 [2]): ~1360 nM
18 | 13merAT (dsDNA) DNA 1: GCACAATATAACG DNA 2: CGTTATATTGTGC |  | binding result (ARID49-152 K85A/Q86A): binds
19 | FAM-13merAT (dsDNA) DNA 1: GCACAATATAACG DNA 2: CGTTATATTGTGC |  | binding result (Arid1a extended ARID [3]): binds; Kd (Arid5a ARID37-183 [2]): ~1360 nM
20 | CACACCGUUCUAGGUGCUG (structured_RNA) [19mer_ADE (Ox40 ADE)] |  | binding result (Arid5a ARID37-183 [4]): binds
21 | 13merAT_var2 (dsDNA) DNA 1: GCACGGTATAACG DNA 2: CGTTATACCGTGC |  | Kd (Arid5a ARID37-183 [2]): ~1360 nM
22 | ACAGGCAGG (ssRNA) [RBNS-9mer-fw] |  | binding result (Arid5a ARID49-152): binds
23 | CCUGCCUGU (ssRNA) [RBNS-9mer-rev] |  | binding result (Arid5a ARID49-152): binds
24 | FAM-13merGC (dsDNA) DNA 1: GCCCCGCCCGCCG DNA 2: CGGCGGGCGGGGC |  | binding result (Arid1a extended ARID [5]): binds
25 | Il-6 3'UTR 129 nt (structured_RNA) RNA: GGCACAGAACUUAUGUUGUUCUCUAUGGAGAACUAAAAGUAUGAGCGUUAGGACACUAUUUUAAUUAUUUUUAAUUUAUUAAUAUUUAAAUAUGUGAAGCUGAGUUAAUUUAUGUAAGUCAUAUUUAUA |  | binding result (Arid5a ARID37-183 [6]): binds
